Data as given in publication PMC4403819.

Target: T1, OmpR-His6 non-phosphorylated (Yersinia enterocolitica Ye9 (O:9)?) (UniProt P74982)
T1 sequence: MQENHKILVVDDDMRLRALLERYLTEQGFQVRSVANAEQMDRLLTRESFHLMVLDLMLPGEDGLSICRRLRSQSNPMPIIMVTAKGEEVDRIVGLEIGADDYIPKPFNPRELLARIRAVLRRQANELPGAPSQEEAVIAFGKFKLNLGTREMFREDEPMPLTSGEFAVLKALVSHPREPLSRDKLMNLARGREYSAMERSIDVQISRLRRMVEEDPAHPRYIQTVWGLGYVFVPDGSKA
Assay: EMSA
Conditions: Binding buffer, pH and temperature not given ([…]

For “TGGAATTCATTGCAGCCAGAGGCATTACCCCTCTGTTTTTGCTCATAGATAAACCTCAAGTGTCCGATTTTTAATTTAATTCAATGGATCACAAGCTTTAAAACCCATTGCTGCGTAAATTATATGTGCGTGCTATGGTACATACATTCGTGAATGTATGTAAATCGCACCCCCTCGAAAAAACAACGCTATGGCACGAAAAACCAAACAGCAAGGTACCCA (double strand) [acrR promoter fragment p222]”, the binding was “binds more weakly”.
